Experiment [1] concerns the target SV40 large T antigen (SV40) (UniProt P03070). Nature of the experiment: in vitro phosphorylation of the large T:Rb complex, immunoprecipitation with anti-large T antibody.
Experiment [2] has as its target SV40 large T antigen (SV40), P03070. The description is as above. As to conditions: remark: other sources report otherwise.

“And” between values parts separate entries of the source, which are not always exact repeats. Identical values can stand only once.

With RB-E (from UniProt P06400 2-928), in experiment [1], the percent of the Rb protein released from large T by phosphorylation amounted to 70%.

B1: RB-H, P06400 2-928 (protein)
chain: PPKTPRKTAATAAAAAAEPPAPPPPPPPEEDPEQDSGPEDLPLVRLEFEETEEPDFTALCQKLKIPDHVRERAWLTWEKVSSVDGVLGGYIQKKKELWGICIFIAAVDLDEMSFTFTELQKNIEISVHKFFNLLKEIDTSTKVDNAMSRLLKKYDVLFALFSKLERTCELIYLTQPSSSISTEINSALVLKVSWITFLLAKGEVLQMEDDLVISFQLMLCVLDYFIKLSPPMLLKEPYKTAVIPINGSPRTPRRGQNRSARIAKQLENDTRIIEVLCKEHECNIDEVKNVYFKNFIPFMNSLGLVTSNGLPEVENLSKRYEEIYLKNKDLDARLFLDHDKTLQTDSIDSFETQRTPRKSNLDEEVNVIPPHTPVRTVMNTIQQLMMILNSASDQPSENLISYFNNCTVNPKESILKRVKDIGYIFKEKFAKAVGQGCVEIGSQRYKLGVRLYYRVMESMLKSEEERLSIQNFSKLLNDNIFHMSLLACALEVVMATYSRSTSQNLDSGTDLSFPWILNVLNLKAFDFYKVIESFIKAEGNLTREMIKHLERCEHRIMESLAWLSDSPLFDLIKQSKDREGPTDHLESACPLNLPLQNNHTAADMYLSPVRSPKKKGSTTRVNSTANAETQATSAFQTQKPLKSTSLSLFYKKVYRLAYLRLNTLCERLLSEHPELEHIIWTLFQHTLQNEYELMRDRHLDQIMMCSMYGICKVKNIDLKFKIIVTAYKDLPHAVQETFKRVLIKEEEYDSIIVFYNSVFMQRLKTNILQYASTRPPTLSPIPHIPRSPYKFPSSPLRIPGGNIYISPLKSPYKISEGLPTPTKMTPRSRILVSIGESFGTSEKFQKINQMVCNSDRVLKRSAEGSNPPKPLKKLRFDIEGSDEADGSKHLPGESKFQQKLAEMTSTRTRMQKQKMNDSMDTSNKEEK
Take B1: the percent of the Rb protein that remained bound after phosphorylation in experiment [2] was 20% and 30%.

The values above are taken from US6590086.
